Entries after “also recorded” stand apart in the source; their conditions may differ.

Here are results for three compounds from patent publication US11766480B2, “Multivalent peptoid oligomers, pharmaceutical compositions and methods of using same” (NEW YORK UNIVERSITY, priority 2012, dated 2023).

One data set deals with PC3 cells. Description: Cell toxicity assay (CyQUANT cell viability), PC3. It counts as cell-based. Particulars: 20 μM, 72 hours. Here is the method:
(§1) To evaluate the general cell toxicity of oligomers 6 and 7, a cell viability assay was utilized.
(§2) HEK293 and PC3 cells were seeded in triplicate on 96-well plates (Corning) in DMEM and HAM'S—F media supplemented with 10% FBS, 1% L-Gln and 1% PS, respectively. HEK293 and PC3 cells were then treated with conjugates (1 μM and 20 μM, respectively) and allowed to incubate at 37° C. for 72 hours. Following treatment, relative cell viability was measured using the CyQUANT reagent according to the manufacturer's instructions. Fluorescence intensity was quantified as described above. All data were processed using GraphPad Prism.

In another data set the test system is LNCaP-abl cells. The data set can be described thus: Cell-cycle distribution by FACS / flow cytometry. The class given is cell-based, human. Particulars: 1 μM, 48 h. Here is the method: LNCaP-abl cells were grown on 10 cm culture dishes (BD Falcon) to approximately 70% confluence in RPMI media supplemented with 10% charcoal-stripped FBS, 1% L-Gln, and 1% PS. Cells were then treated with conjugate 1 or 2 to a final concentration of 1 μM and allowed to incubate at 37° C. for 48 h. Following treatment, cells were fixed and suspended in 2 mL of 1:3 HBSS:Phosphate-Citrate Buffer (pH 8.0) containing 0.1% Triton X-100. Cells were centrifuged (2,000 rpm for 5 min) and suspended in 1 mL of propidium-iodide solution (1 mg propidium iodine, 10 mg EDTA, 250 μL Igepal, and 2.2 μg μL-1 RNAase in 50 mL of PBS). Cells were then harvested for cell-cycle analysis by filtration (CellTrics, 100 μm) into conical tubes (Falcon) and analyzed by flow cytometry (Becton-Dickinson FACScalibur). All data were analyzed using FlowJo software.
The inventors analyzed cell-cycle distribution of LNCaP-abl cells treated with either oligomer 6 or 7 utilizing fluorescence-activated cell sorting (FACS) analysis. These studies provide a quantitative assessment of normal and apoptotic nuclei along with cell distribution in the G0/G1, S, and G2/M phases of the cell-cycle.
Background: A flow cytometer gives signals particle by particle.

The next data set has as its system HEK293 cells. The data set can be described thus: Cell toxicity assay (CyQUANT cell viability), HEK293. The class given is cell-based, human. The settings on record: 1 μM, 72 hours. As for the experimental part: as §1, §2
The target of another data set is T1, AR (Homo sapiens, UniProt P10275, T878A).
T1 construct: endogenous in cells; host or cells: LNCaP-abl
T1 sequence (P10275 1-920 T878A): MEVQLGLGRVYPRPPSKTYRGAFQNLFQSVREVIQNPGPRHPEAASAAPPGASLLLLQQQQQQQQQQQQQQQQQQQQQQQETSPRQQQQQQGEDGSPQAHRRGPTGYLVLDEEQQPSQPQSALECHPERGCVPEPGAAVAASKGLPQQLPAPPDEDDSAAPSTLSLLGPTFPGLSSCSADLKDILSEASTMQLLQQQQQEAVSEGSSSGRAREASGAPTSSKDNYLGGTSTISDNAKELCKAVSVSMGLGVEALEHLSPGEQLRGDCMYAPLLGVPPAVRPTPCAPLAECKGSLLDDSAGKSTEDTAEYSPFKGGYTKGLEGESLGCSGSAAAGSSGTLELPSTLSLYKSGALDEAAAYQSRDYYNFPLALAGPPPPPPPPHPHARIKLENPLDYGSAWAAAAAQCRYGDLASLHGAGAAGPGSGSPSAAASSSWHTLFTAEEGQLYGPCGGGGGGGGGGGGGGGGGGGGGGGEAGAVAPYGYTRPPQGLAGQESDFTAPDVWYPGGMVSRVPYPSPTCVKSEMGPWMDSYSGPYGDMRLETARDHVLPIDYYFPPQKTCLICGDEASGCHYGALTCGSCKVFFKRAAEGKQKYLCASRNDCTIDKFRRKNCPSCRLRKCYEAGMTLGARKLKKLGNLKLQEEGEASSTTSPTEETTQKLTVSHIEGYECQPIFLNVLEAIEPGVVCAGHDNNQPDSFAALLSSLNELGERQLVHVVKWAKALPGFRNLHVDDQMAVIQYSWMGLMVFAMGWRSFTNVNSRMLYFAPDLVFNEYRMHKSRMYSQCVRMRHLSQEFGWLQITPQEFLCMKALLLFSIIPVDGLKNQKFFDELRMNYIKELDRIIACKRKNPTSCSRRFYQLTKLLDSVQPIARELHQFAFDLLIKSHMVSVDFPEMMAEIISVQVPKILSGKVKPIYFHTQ
The data set can be described thus: Chromatin immunoprecipitation of AR at the PSA enhancer in LNCaP-abl cells. It counts as cell-based. Particulars: R-1881 10 nM alone, positive control.

Protocol for AR: Following treatment, proteins were double cross-linked with DSP (Pierce) for 20 min and 1% formalin for 10 min. Cells were lysed, and nuclei were collected, lysed in buffer (1% SDS, 50 mM Tris-HCl (pH 8.0), 10 mM EDTA), and sonicated for 12 min (30 s on, 30 s off) utilizing a Bioruptor sonicator (Diagenode, model XL). Sonicated lysates were precleared for 2 h with Protein A/G agarose beads blocked with salmon sperm DNA (Millipore). […] Control ChIP was concurrently performed with the same quantity of normal mouse and rabbit IgG sera. Immunocomplexes were then washed and cross-linking was reversed. DNA was isolated with a PCR purification kit (Qiagen) according to the manufacturer's instructions, and real-time PCR was performed. Relative enrichment of indicated genomic locus was calculated as a percentage of 4% input normalized to IgG. All data were processed using GraphPad Prism.

As for `COCCN(CC(N)=O)C(=O)CN(CCOC)C(=O)CN(CCCn1cc([C@]2(O)CCC3C4CCC5=CC(=O)CC[C@]5(C)C4CC[C@@]32C)nn1)C(=O)CN(CCOC)C(=O)CN(CCOC)C(=O)CN(CCOC)C(=O)CN(CCOC)C(=O)CN(CCOC)C(=O)CN(CCOC)C(=O)CN(CCOC)C(=O)CN(CCOC)C(=O)CNCCCn1cc([C@]2(O)CCC3C4CCC5=CC(=O)CC[C@]5(C)C4CC[C@@]32C)nn1` (stereo partly shown) [Oligomer 6], the “cytotoxic effects in AR-deficient PC3 cells” value with PC3 cells is “did not exhibit cytotoxic effects; also recorded: cytotoxicity was not observed”. For the same compound, in the data set on LNCaP-abl cells, the apoptotic cell population result is listed as “no increase in the apoptotic cell population”. Besides, the “cytotoxic effects in HEK293 cells” value with HEK293 cells was “did not exhibit cytotoxic effects; also recorded: cytotoxicity was not observed”.

As to `COCCN1CC(=O)N(CCCn2cc([C@]3(O)CCC4C5CCC6=CC(=O)CC[C@]6(C)C5CC[C@@]43C)nn2)CC(=O)N(CCOC)CC(=O)N(CCOC)CC(=O)N(CCCn2cc([C@]3(O)CCC4C5CCC6=CC(=O)CC[C@]6(C)C5CC[C@@]43C)nn2)CC(=O)N(CCOC)CC1=O` (stereo partly shown) [Oligomer 7], the “cytotoxic effects in AR-deficient PC3 cells” value with PC3 cells is “did not exhibit cytotoxic effects; also recorded: cytotoxicity was not observed”. The apoptotic cell population entry in the data set with LNCaP-abl cells is reported as “no increase in the apoptotic cell population”. Moreover, in the data set with HEK293 cells, the “cytotoxic effects in HEK293 cells” value is reported as “did not exhibit cytotoxic effects; also recorded: cytotoxicity was not observed”.

Take `C[C@]1(O)CC[C@H]2[C@@H]3CCC4=CC(=O)CCC4=C3C=C[C@@]21C` [Oligomer R-1881]: the “AR recruitment to the PSA enhancer” value at AR is on record as “promoted AR recruitment”.
